Where two headings read alike, the source gives them in different places.
Key:
[1] = tested on: LDL
Method: (§1) The association of peptide 4 (SEQ ID NO:4) with human lipoprotein fractions was determined by incubating ^14C-labeled peptide 4 (SEQ ID NO:4) with each lipoprotein class (HDL, LDL and VLDL) and a mixture of the different lipoprotein classes.
(§2) HDL, LDL and VLDL were isolated by KBr density gradient ultracentrifugation at d=1.21 g/ml and purified by FPLC on a Superose 6B column size exclusion column (chromatography was carried out with a flow rate of 0.7 ml/min. and a running buffer of 10 mM Tris (pH 8), 115 mM NaCl, 2 mM EDTA and 0.01% NaN3). ^14C-labeled peptide 4 was incubated with HDL, LDL and VLDL at a peptide:phospholipid ratio of 1:5 (mass ratio) for 2 h at 37° C. The required amount of lipoprotein (volumes based on amount needed to yield 1000 μg) was mixed with 0.2 ml of peptide stock solution (1 mg/ml) and the solution was brought up to 2.2 ml using 0.9% of NaCl according to TABLE XIII:
(§3) After incubating for 2 hr. at 37° C., an aliquot (0.1 ml) was removed for liquid scintillation counting to determine the total radioactivity, the density of the remaining incubation mixture was adjusted to 1.21 g/ml with KBr, and the samples centrifuged at 100,000 rpm (300,000 g) for 24 hours at 4° C. in a TLA 100.3 rotor using a Beckman tabletop ultracentrifuge. The resulting supernatant was fractionated by removing 0.3 ml aliquots from the top of each sample for a total of 5 fractions, and 0.05 ml of each fraction was used for liquid scintillation counting. The top two fractions contain the floating lipoproteins, the other fractions (3-5) correspond to proteins/peptides in solution.

[2] = tested on: VLDL
Method: as §1, §2, §3

[3] = tested on: mixture of HDL, LDL and VLDL
Method: as §1, §2, §3

[4] = tested on: HDL
Method: as §1, §2, §3

[5] = Control (peptide without lipoprotein)

PVLDLFRELLNELLEALKQKLK [peptide 4]
Recovery ([1]; LDL/Peptide): 89% | radioactivity Total ([1]; LDL/Peptide): 89330 | radioactivity Total before centrifugation ([1]; LDL/Peptide): 100452 | radioactivity in Fraction 1 ([1]; LDL/Peptide): 43740 | radioactivity in Fraction 2 ([1]; LDL/Peptide): 15140 | radioactivity in Fraction 3 ([1]; LDL/Peptide): 11880 | radioactivity in Fraction 4 ([1]; LDL/Peptide): 10860 | radioactivity in Fraction 5 ([1]; LDL/Peptide): 7710 | share of total radioactivity in fractions 1 and 2 (associated with lipoprotein) ([1]; incubation with isolated LDL): 66% | Recovery ([2]; VLDL/Peptide): 75% | radioactivity Total ([2]; VLDL/Peptide): 73280 | radioactivity Total before centrifugation ([2]; VLDL/Peptide): 97306 | radioactivity in Fraction 1 ([2]; VLDL/Peptide): 42920 | radioactivity in Fraction 2 ([2]; VLDL/Peptide): 19280 | radioactivity in Fraction 3 ([2]; VLDL/Peptide): 3930 | radioactivity in Fraction 4 ([2]; VLDL/Peptide): 2600 | radioactivity in Fraction 5 ([2]; VLDL/Peptide): 4550 | share of total radioactivity in fractions 1 and 2 (associated with lipoprotein) ([2]; incubation with isolated VLDL): 85% | Recovery [3, 5]: 89% | radioactivity Total [3, 5]: 79170 | radioactivity Total before centrifugation [3, 5]: 88550 | radioactivity in Fraction 1 [3, 5]: 650 | radioactivity in Fraction 2 [3, 5]: 1000 | radioactivity in Fraction 3 [3, 5]: 6590 | radioactivity in Fraction 4 [3, 5]: 36550 | radioactivity in Fraction 5 [3, 5]: 34380 | FPLC analysis of the LP/peptide incubation mixture (in words) ([3]; LP/Peptide): nearly all of the ^14C-labeled peptide 4 was associated with the HDL fraction | Recovery ([3]; LP/Peptide): 87% | radioactivity Total ([3]; LP/Peptide): 83650 | radioactivity Total before centrifugation ([3]; LP/Peptide): 96646 | radioactivity in Fraction 2 ([3]; LP/Peptide): 12990 | radioactivity in Fraction 3 ([3]; LP/Peptide): 3810 | radioactivity in Fraction 4 ([3]; LP/Peptide): 1510 | radioactivity in Fraction 5 ([3]; LP/Peptide): 5090 | radioactivity in Fraction 1 ([3]; LP/Peptide (HDL, LDL and VLDL)): 60250 | labeled peptide associated with the lipoprotein fraction ([3]; LP/Peptide, all lipoprotein fractions): 88% | Recovery ([4]; HDL/Peptide): 91% | radioactivity Total ([4]; HDL/Peptide): 89970 | radioactivity Total before centrifugation ([4]; HDL/Peptide): 98494 | radioactivity in Fraction 1 ([4]; HDL/Peptide): 61510 | radioactivity in Fraction 2 ([4]; HDL/Peptide): 17620 | radioactivity in Fraction 3 ([4]; HDL/Peptide): 2260 | radioactivity in Fraction 4 ([4]; HDL/Peptide): 3130 | radioactivity in Fraction 5 ([4]; HDL/Peptide): 5450 | share of total radioactivity in fractions 1 and 2 (associated with lipoprotein) ([4]; incubation with isolated HDL): 88%
